According to paper doi:10.1101/2025.06.05.657996:

Columns and labels:
[1] = molecular target: MHV68 gL-gH fusion protein (gL-Linker-gH-Linker-His6) (murine gammaherpesvirus 68 (MHV68)); test: ELISA; MHV68 gL-gH fusion protein coated at 2.5 μg/ml in PBS on Maxisorp plates; dimeric soluble murine Eph-Fc proteins 2 h at room temperature in 1% BSA in PBS; detected with ProteinG-HRP; four-parameter dose-response fit
[2] = molecular target: MHV68 gL-gH fusion protein (gL-Linker-gH-Linker-His6) (murine gammaherpesvirus 68 (MHV68))

Molecule: recombinant soluble murine EphA4-Fc (from UniProt Q03137 20-547) (Fc fusion)
- EC50 [1]: 3.6 nM
- reduction of MHV68 ORF59-GFP infection of the murine endothelial cell line SVEC4-10 after pre-incubation of virions with 100 nM homodimerized mEphA4-Fc [2]: 25%

B1: recombinant soluble murine EphB3-Fc (Fc fusion)
chain: LEETLMDTKWVTSELAWTSHPESGWEEVSGYDEAMNPIRTYQVCNVRESSQNNWLRTGFIWRREVQRVYVELKFTVRDCNSIPNIPGSCKETFNLFYYEADSDVASASSPFWMENPYVKVDTIAPDESFSRLDAGRVNTKVRSFGPLSKAGFYLAFQDQGACMSLISVRAFYKKCASTTAGFALFPETLTGAEPTSLVIAPGTCIANAVEVSVPLKLYCNGDGEWMVPVGACTCATGHEPAAKESQCRACPPGSYKAKQGEGPCLPCPPNSRTTSPAASICTCHNNFYRADSDSADSACTTVPSPPRGVISNVNETSLILEWSEPRDLGGRDDLLYNVICKKCRGSSGAGGPATCSRCDDNVEFVPRQLGLTERRVHISHLLAHTRYTFEVQAVNGVSGKSPLPPRYAAVNITTNQAAPSEVPTLHLHSSSGSSLTLSWAPPERPNGVILDYEMKYFEKSKGIASTVTSQKNSVQLDGLQPDARYVVQVRARTVAGYGQYSHPAEFETTSERGSGAQQLQEQLPL
- EC50 [1]: 2.3 nM
- inhibition of MHV68 ORF59-GFP infection of human fibroblasts (HFF) and endothelial cells (TIME) after pre-incubation of virions with 100 nM homodimerized mEphB3-Fc [2]: 30%
- reduction of MHV68 ORF59-GFP infection of NIH 3T3 murine fibroblasts after pre-incubation of virions with a concentration series of soluble mEphB3-Fc, up to 100 nM homodimerized protein [2]: 40%
